Where two headings read alike, the source gives them in different places.

The results in this text go back to patent publication US12072338B2, “Pharmaceutical peptides for the treatment of inflammatory diseases” (PROTAGONISTS LTD., priority 2007, dated 2024).

The target of experiment [1] is T1, BCA-1 (Homo sapiens, UniProt O43927).
T1 construct: purchased 300-47
T1 sequence (O43927 23-109): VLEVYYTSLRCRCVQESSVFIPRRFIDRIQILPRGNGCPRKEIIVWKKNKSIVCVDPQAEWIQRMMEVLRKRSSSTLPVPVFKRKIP
Nature of the experiment: Micro-array analysis of chemokine binding peptides: BCA-1. In a few lines: (§1)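 Phage-presented peptides (10^7 pfu/μl in wash buffer) were incubated 1 h at room temperature on blocked slides carrying chemokine spots at 25 or 50 μg/ml. After anti-M13 and Cy3-labelled secondary antibody staining, slides were laser-scanned and spot fluorescence quantified as relative binding.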

Experiment [2] concerns the target T2, MCP-4 (Homo sapiens, UniProt Q99616).
T2 construct: purchased 300-24
The experiment is described as follows: Micro-array analysis of chemokine binding peptides: MCP-4. The settings on record: limit = start of the upper 75% of that peptide's response range. Put shortly: as §1

The subject of experiment [3] is IL-8. The experiment is described as follows: Micro-array analysis of chemokine binding peptides: IL-8. The settings on record: for binding to IL-8 with relatively high affinity (Relative Fluorescence Units): limit = start of the upper 75% of that peptide's response range. In a few lines:
as §1

Experiment [4] concerns the target T3, SDF1-β (Homo sapiens, UniProt P48061).
T3 construct: purchased 300-28b
Nature of the experiment: Micro-array analysis of chemokine binding peptides: SDF1-β. In a few lines: as §1

The target in experiment [5] is T4, MCP-1 (Homo sapiens, UniProt P13500).
T4 construct: purchased 300-04
T4 sequence (P13500 24-99): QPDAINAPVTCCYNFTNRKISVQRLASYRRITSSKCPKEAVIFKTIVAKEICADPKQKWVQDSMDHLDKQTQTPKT
The experiment is described as follows: Micro-array analysis of chemokine binding peptides: MCP-1. The note with it: for binding to MCP-1 with relatively high affinity (Relative Fluorescence Units): limit = start of the upper 75% of that peptide's response range. Put shortly:
as §1

For experiment [6], the target named is T5, Eotaxin 3 (Homo sapiens, UniProt Q9Y258).
T5 construct: purchased 300-48
T5 sequence (Q9Y258 24-94): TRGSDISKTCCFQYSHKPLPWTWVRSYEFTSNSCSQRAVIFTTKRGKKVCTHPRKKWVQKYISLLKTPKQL
Nature of the experiment: Micro-array analysis of chemokine binding peptides: Eotaxin 3. The settings on record: for binding to Eotaxin 3 with relatively high affinity (Relative Fluorescence Units): limit = start of the upper 75% of that peptide's response range. In a few lines: as §1

Experiment [7] deals with T6, I-309 (Homo sapiens, UniProt P22362).
T6 construct: purchased 300-37
T6 sequence (P22362 24-96): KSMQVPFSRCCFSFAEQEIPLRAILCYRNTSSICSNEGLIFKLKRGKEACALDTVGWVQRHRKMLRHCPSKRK
The experiment is described as follows: Micro-array analysis of chemokine binding peptides: I-309. The note with it: for binding to I-309 with relatively high affinity (Relative Fluorescence Units): limit = start of the upper 75% of that peptide's response range. In a few lines:
as §1

Experiment [8] has as its target T7, RANTES (Homo sapiens, UniProt P13501).
T7 construct: purchased 300-06
T7 sequence (P13501 24-91): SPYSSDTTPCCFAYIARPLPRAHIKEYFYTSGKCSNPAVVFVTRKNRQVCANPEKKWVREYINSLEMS
The experiment is described as follows: Micro-array analysis of chemokine binding peptides: RANTES. In a few lines:
as §1

Experiment [9] deals with T8, Fractalkine (Homo sapiens, UniProt P78423).
T8 construct: purchased 300-31
T8 sequence (P78423 25-100 limits assumed): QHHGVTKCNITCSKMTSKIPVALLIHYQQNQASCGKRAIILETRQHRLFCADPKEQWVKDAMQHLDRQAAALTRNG
Nature of the experiment: Micro-array analysis of chemokine binding peptides: Fractalkine. In a few lines: as §1

For experiment [10], the target named is T9, TECK (Homo sapiens, UniProt O15444).
T9 construct: purchased 300-45
T9 sequence (O15444 24-150): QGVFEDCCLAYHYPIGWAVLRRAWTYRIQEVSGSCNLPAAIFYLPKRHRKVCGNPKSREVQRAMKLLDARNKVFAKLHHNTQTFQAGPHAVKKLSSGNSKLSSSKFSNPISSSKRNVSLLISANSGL
The experiment is described as follows: Micro-array analysis of chemokine binding peptides: TECK. Put shortly: as §1

Experiment [11] concerns the target T10, I-TAC (Homo sapiens, UniProt O14625).
T10 construct: purchased 300-46
T10 sequence (O14625 22-94): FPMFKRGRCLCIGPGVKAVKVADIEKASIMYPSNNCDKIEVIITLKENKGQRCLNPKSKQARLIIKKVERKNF
Nature of the experiment: Micro-array analysis of chemokine binding peptides: I-TAC. The note with it: for binding to I-TAC with relatively high affinity (Relative Fluorescence Units): limit = start of the upper 75% of that peptide's response range. In a few lines: as §1

The target of experiment [12] is T11, MDC 69 (Homo sapiens, UniProt O00626).
T11 construct: MDC(69aa), (CCL22 cat.no.300-36A); purchased 300-36A
T11 sequence (O00626 25-93): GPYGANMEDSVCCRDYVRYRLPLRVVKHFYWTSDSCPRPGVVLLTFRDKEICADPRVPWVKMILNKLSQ
The experiment is described as follows: Micro-array analysis of chemokine binding peptides: MDC 69. As to the method: (§2) (1) Printing: Chemokine (CK) solution (in water) was serially diluted with Print Reagent (GenTel BioSurfaces USA) to final concentrations of 50 μg and 25 μg/ml. BSA/BSA-Biotin control solutions (in water) were diluted with Print Reagent to 100 μg/ml. Amplified stock of M13 phage control (M13KEgIII Cloning Vector, New England Biolabs, Cat.No.E8101S) was stored in Tris Buffered Saline (TBS; pH7.5, 4° C.) and diluted with Print Reagent to the working titre (10^8 pfu/μl). An automated spotting robot (16 pin print tool, 0.4 mm head; BioRobotics, UK) was used to print the CK/BSA control/M13 control, 5 repeats per sample (CK 25 μg/ml and 50 μg/ml; BSA 100 μg/ml; M13 20 μl), on PATH Protein Microarray Slides (GenTel, Prod.No. 2-1005/-1025) at […], and 50-70% relative humidity. Printed micro-array slides were stored at Room Temperature (RT) or 4° C. for at least 24 h before use.
(§3) (2) Blocking: Block Buffer (500 μl/partition; PATHblock, GenTel, Prod.No. 2-1014) was applied to the slide for 1 hour at room temp (RT). After removal of Block Buffer, the slide was air dried for 25 minutes;
(§4) (3) Phage Presented Peptide Binding: Amplified recombinant phage stock was stored in TBS and diluted with Wash Buffer to working titer (10^7 pfu/μl). Recombinant phage suspension (300 μl) was applied per partition and incubated at RT for 1 hour with gentle agitation.
(§5) (4) First Washing: The slides were washed twice with Wash Buffer 300 μl/partition).
(5) Primary Antibody (Ab) Labeling: The slides were incubated with the Primary Ab (1 mg/ml diluted ×2500 (Wash Reagent), 300 μl; Mouse Anti-M13 monoclonal Ab; Amersham Biosciences, UK; Product Code 27-9420-01) for 45 minutes at RT. […]
(§6) (11) Analysis: Quantitative analysis of micro-array was performed by the SpotReader program of Niles Scientific (USA) and presented as Relative Fluorescence (RF) as a function of CK concentration. Micro-array readout (Cy3 fluorescence) was quantified to determine the relative binding affinities of a CBP for the CKs and by inference, the specificity of the CBP for binding to a CK.

Experiment [13] deals with T12, MCP-2 (Homo sapiens, UniProt P80075).
T12 construct: purchased 300-15
T12 sequence (P80075 24-99): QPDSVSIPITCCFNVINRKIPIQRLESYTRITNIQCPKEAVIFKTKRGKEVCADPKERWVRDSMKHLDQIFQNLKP
Nature of the experiment: Micro-array analysis of chemokine binding peptides: MCP-2. The note with it: limit = start of the upper 75% of that peptide's response range. Put shortly:
as §1

Experiment [14] relates to SDF1. The experiment is described as follows: Micro-array analysis of chemokine binding peptides: SDF1 (isoform not given). The method, then:
as §2, §3, §4, §5
(5) Primary Antibody (Ab) Labeling: The slides were incubated with the Primary Ab (1 mg/ml diluted ×2500 (Wash Reagent), 300 μl; Mouse Anti-M13 monoclonal Ab; Amersham Biosciences, UK; Product Code 27-9420-01) for 45 minutes at RT.
(6) Second Washing: The slides were washed twice with Wash Buffer (300 μl/partition).
(7) Secondary Ab Labeling: The slides were incubated with Secondary Ab (1.5 mg/ml diluted ×5000 (Wash Reagent), 300 μl; Cy3-conjugated AffiniPure Goat Anti-Mouse IgG; Jackson ImmunoReserch Labs, USA; Product Code 115-165-062).
(8) Third Washing: The slides were washed twice with Wash Buffer (300 μl/partition).
(9) Rinse: the slides were rinsed twice with Rinse Buffer (PATHrinse, GenTel, Prod.No. 2-1018) then dried well.
(10) Scanning: The peptide-bound, labeled slide was scanned (Laser Intensity 80%, Gain 80%, Resolution 10 μm) with a ScanArray Life Scanner (Packard BioChip Technologies, USA).
as §6

The mark [15] stands for this setting: limit = start of the upper 75% of that peptide's response range.

Chain of IL-8 (P10145 28-99 limits assumed): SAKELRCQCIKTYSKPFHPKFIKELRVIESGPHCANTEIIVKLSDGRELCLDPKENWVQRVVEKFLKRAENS
T3 sequence (P48061 22-93): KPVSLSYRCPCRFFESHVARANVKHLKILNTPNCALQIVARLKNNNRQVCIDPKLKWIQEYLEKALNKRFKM
T2 sequence (Q99616 17-98): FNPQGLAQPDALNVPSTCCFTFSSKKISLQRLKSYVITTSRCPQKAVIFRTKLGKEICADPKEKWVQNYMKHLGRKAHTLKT
Chain of SDF1 (P48061 22-89 limits assumed): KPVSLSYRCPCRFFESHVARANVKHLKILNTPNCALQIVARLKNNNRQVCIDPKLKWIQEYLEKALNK

In the case of DYDYGAPC [Ph-p30], the “binding to BCA-1, stated in words” value in experiment [1] is reported as “bound”. Also, the “binding to MCP-4 with relatively high affinity (Relative Fluorescence Units)” value in [2] is recorded as > 15,000 RFU. For the same sequence, the “binding to IL-8 with relatively high affinity (Relative Fluorescence Units)” value in experiment [3] is recorded as > 15,000 RFU. Moreover, the “binding to SDF1-β, stated in words” value in [4] is “bound”. Further, the “binding to MCP-1 with relatively high affinity (Relative Fluorescence Units)” value in [5] is reported as > 15,000 RFU. For the same sequence, the “binding to Eotaxin 3 with relatively high affinity (Relative Fluorescence Units)” value in experiment [6] is given as > 15,000 RFU. For the same sequence, the “binding to I-309 with relatively high affinity (Relative Fluorescence Units)” value in [7] is reported as > 15,000 RFU. Besides, the “binding to RANTES with relatively high affinity (Relative Fluorescence Units)” value in [8] (setting [15]) is reported as > 15,000 RFU. Also, in [9], the “binding to Fractalkine, stated in words” value is on record as “bound”. The “binding to TECK, stated in words” value in experiment [10] is listed as “bound”. Moreover, the “binding to I-TAC with relatively high affinity (Relative Fluorescence Units)” value in experiment [11] is recorded as > 15,000 RFU. In addition, the “binding to MDC 69, stated in words” value in [12] was “bound”. In experiment [13], the “binding to MCP-2 with relatively high affinity (Relative Fluorescence Units)” value is reported as > 15,000 RFU.
Take WVFGAAMCK [Ph-p8.8]: the “binding to BCA-1, stated in words” value in experiment [1] is listed as “bound”. For the same sequence, in experiment [2], the “binding to MCP-4 with relatively high affinity (Relative Fluorescence Units)” value is listed as > 15,000 RFU. Also, the “binding to IL-8, stated in words” value in [3] was “bound”; in experiment [3] (listed as P8.8) it was “bound specifically and differentially”. In addition, in experiment [4], the “binding to SDF1-β, stated in words” value is recorded as “bound”. In addition, the “binding to MCP-1, stated in words” value in [5] was “bound specifically and differentially”. Besides, the “binding to MCP-1 with relatively high affinity (Relative Fluorescence Units)” value in experiment [5] is > 15,000 RFU. In addition, the “binding to Eotaxin 3, stated in words” value in [6] is reported as “bound”. For the same sequence, the “binding to I-309, stated in words” value in [7] was “bound”. In addition, the “binding to Fractalkine, stated in words” value in experiment [9] was “bound”; in experiment [9] (listed as P8.8), “bound specifically and differentially”. Besides, in [14], the “binding to SDF1 (isoform not given), stated in words” value is “bound specifically and differentially”. Besides, in experiment [10], the “binding to TECK, stated in words” value is recorded as “bound”. Also, the “binding to I-TAC, stated in words” value in experiment [11] is “bound”. Further, the “binding to MDC 69, stated in words” value in [12] was “bound”. In addition, in experiment [13], the “binding to MCP-2 with relatively high affinity (Relative Fluorescence Units)” value is given as > 15,000 RFU.
Take WVFGNAMCK [P8]: in experiment [1] (setting [15]), the “binding to BCA-1 with relatively high affinity (Relative Fluorescence Units)” value is listed as > 25,000 RFU. In addition, the “binding to MCP-4 with relatively high affinity (Relative Fluorescence Units)” value in experiment [2] is > 25,000 RFU. Moreover, in experiment [3], the “binding to IL-8, stated in words” value was “bound specifically and differentially”; the “binding to IL-8 with relatively high affinity (Relative Fluorescence Units)” value was > 25,000 RFU. For the same sequence, in experiment [4] (setting [15]), the “binding to SDF1-β with relatively high affinity (Relative Fluorescence Units)” value was > 25,000 RFU. The “binding to Eotaxin 3 with relatively high affinity (Relative Fluorescence Units)” value in [6] was > 25,000 RFU. In [7], the “binding to I-309 with relatively high affinity (Relative Fluorescence Units)” value is > 25,000 RFU. The “binding to RANTES, stated in words” value in [8] is “bound specifically and differentially”. In addition, the “binding to Fractalkine, stated in words” value in [9] was “bound specifically and differentially”. In experiment [9] (setting [15]), the “binding to Fractalkine with relatively high affinity (Relative Fluorescence Units)” value is recorded as > 25,000 RFU. The “binding to SDF1 (isoform not given), stated in words” value in experiment [14] is “bound specifically and differentially”. The “binding to TECK with relatively high affinity (Relative Fluorescence Units)” value in [10] (setting [15]) was > 25,000 RFU. For the same sequence, the “binding to I-TAC with relatively high affinity (Relative Fluorescence Units)” value in experiment [11] is given as > 25,000 RFU. Also, the “binding to MCP-2 with relatively high affinity (Relative Fluorescence Units)” value in experiment [13] is on record as > 25,000 RFU.
